Source: US20050191294A1 (University of Texas, published 2005)

B1: WIFPWIQL (SEQ ID NO:6)-phage (peptide)
peptide: WIFPWIQL
notes: whole phage particles stood in the assay; also called GRP78-targeting phage clone; not shown: pIII coat protein of fd-based phage (fUSE5 vector)
B2: WDLAWMFRLPVG (SEQ ID NO:7)-phage (peptide)
peptide: WDLAWMFRLPVG
notes: as for B1
B3: CGRRAGGSC (SEQ ID NO:1)-displaying phage (peptide, not shown: large carriers)
peptide: CGRRAGGSC
notes: whole phage particles stood in the assay; also called IL-11-mimic phage; IL-11 mimic phage

Assays:
[1] = biological target: T1, GRP78 of human prostate cancer cells (DU145 cell surface; human prostate cancer bone metastasis sections) (human, UniProt P11021 19-654); test: BRASIL aqueous-organic phase separation, phage on intact DU145 cells
T1 construct: whole, on cells; Endogenous protein; used for the intact-cell (BRASIL) assay and for tissue section overlays; also called GRP78 expressed on the membrane of the prostate cancer cells
T1 sequence (P11021 19-654): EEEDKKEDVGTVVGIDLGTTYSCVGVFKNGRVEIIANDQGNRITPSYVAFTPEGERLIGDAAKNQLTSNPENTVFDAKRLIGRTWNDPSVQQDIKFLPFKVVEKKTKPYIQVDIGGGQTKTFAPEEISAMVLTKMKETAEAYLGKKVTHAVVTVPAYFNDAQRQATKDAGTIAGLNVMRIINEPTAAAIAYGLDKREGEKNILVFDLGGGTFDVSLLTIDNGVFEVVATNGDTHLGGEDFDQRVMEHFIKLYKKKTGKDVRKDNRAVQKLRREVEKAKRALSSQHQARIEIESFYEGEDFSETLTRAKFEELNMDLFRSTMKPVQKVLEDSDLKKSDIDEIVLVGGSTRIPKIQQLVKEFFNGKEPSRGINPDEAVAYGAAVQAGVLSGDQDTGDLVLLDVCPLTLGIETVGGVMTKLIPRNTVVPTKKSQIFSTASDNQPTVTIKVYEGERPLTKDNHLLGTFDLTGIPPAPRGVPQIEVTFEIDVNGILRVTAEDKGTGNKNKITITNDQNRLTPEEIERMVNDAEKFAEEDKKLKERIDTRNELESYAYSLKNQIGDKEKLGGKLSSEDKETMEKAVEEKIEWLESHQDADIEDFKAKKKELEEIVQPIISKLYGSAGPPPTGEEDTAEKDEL
Method: Cell-binding assays. Biopanning and Rapid Analysis of Selective Interactive Ligands (BRASIL) method was used to evaluate phage binding to intact cells. In brief, cultured human prostate cancer-derived DU 145 cells were detached with ethylenediaminetetraacetate (EDTA) and resuspended in Dulbecco's modified Eagle's medium (DMEM) containing 1% BSA at 4×10⁶ cells per ml. The cell suspension (50 μl) was incubated with 10⁹ of […] (SEQ ID NO:6)—phage, […] (SEQ ID NO:7)—phage, or insertless Fd-tet phage (negative control) at 4° C. in constant slow rotation. After 2 hours, the phage/cell mixture (aqueous phase) was gently transferred to the top of a non-miscible organic phase (200 μl solution in a 400 μl Eppendorf tube) consisting of dibutyl phtalate:cyclohexane (9:1 [v:v]; d=1.03 g ml⁻¹) and centrifuiged at 10,000 g for 10 minutes at 4° C. The tube was then snap frozen in liquid nitrogen, the bottom of the tube was sliced off, and the cell-phage pellet was isolated. Cell membrane bound phage were recovered by infection with the host bacteria.
GRP78-binding phage clones bind specifically to prostate cancer cells. Having determined the binding specificity of aptamers to GRP78 in vitro, the binding of filamentous phage clones displaying […] […] (SEQ ID NO:7) (FIG. 5B) 580 to intact DU145 human prostate cancer cells by using an aqueous-organic phase separation was evaluated. […]

[2] = biological target: T2, recombinant GRP78 (Stressgen); test: phage binding to GRP78 immobilized on microtiter wells, 10^9 TU, bound TU counted
T2 construct: Bought protein; also called Glucose-regulated protein-78; immobilized GRP78
T2 sequence (P07823 19-654): as the sequence (P11021 19-654) above, with Y295F, A631S counted along it
Method: In vitro phage binding assays. GRP78, HSP70, HSP90 (all from Stressgen, Victoria, Canada) and bovine serum albumin (BSA) were immobilized on microtiter wells of 96-well plates overnight at 4° C. Wells were washed twice with phosphate-buffered saline (PBS), blocked with PBS containing 3% BSA for 1 hour at room temperature (RT), and incubated with 10⁹ transducing units (TU) of […] (SEQ ID NO:6)-phage, […] (SEQ ID NO:7)-phage, or insertless control phage (Fd-tet) in 50 μl of PBS containing 1.5% BSA. After 2 hours at RT, wells were washed with PBS, and bound phage were recovered by infection with host bacteria (log-phase Escherichia coli K91 kan; OD₆₀₀≈2). Aliquots of the bacterial culture were plated onto Luria-Bertani broth (LB) agar plates supplemented with 40 μg/ml tetracycline and 100 μg/ml kanamycin. Plates were incubated overnight at 37° C., and phage TU were counted in triplicate plates. Increasing concentrations of synthetic peptides […] (SEQ ID NO:6), […] (SEQ ID NO:7)-, and an unrelated control peptide CARAC (SEQ ID NO:9) (Genemed Synthesis Inc., San Francisco, Calif.) were used to evaluate competitive inhibition of phage binding. All peptides were solubilized in a standard stock solution of 10% dimethylsulfoxide (DMSO) and diluted to working concentrations for the assays.
Peptide aptamers bind specifically to immobilized GRP78. […]

[3] = biological target: T3, IL-11Rα of human prostate cancer cells (LNCaP, MDA-PCa-2b) and human prostate cancer tissue sections (human, UniProt Q14626 23-422); test: phage overlay on human prostate cancer tissue sections, compared with anti-IL-11Rα antibody staining
T3 construct: whole, on cells; Endogenous receptor; used both for cell assays and for tissue section overlays; also called IL-11 receptor alpha; interleukin-11 receptor alpha
T3 sequence (looked up): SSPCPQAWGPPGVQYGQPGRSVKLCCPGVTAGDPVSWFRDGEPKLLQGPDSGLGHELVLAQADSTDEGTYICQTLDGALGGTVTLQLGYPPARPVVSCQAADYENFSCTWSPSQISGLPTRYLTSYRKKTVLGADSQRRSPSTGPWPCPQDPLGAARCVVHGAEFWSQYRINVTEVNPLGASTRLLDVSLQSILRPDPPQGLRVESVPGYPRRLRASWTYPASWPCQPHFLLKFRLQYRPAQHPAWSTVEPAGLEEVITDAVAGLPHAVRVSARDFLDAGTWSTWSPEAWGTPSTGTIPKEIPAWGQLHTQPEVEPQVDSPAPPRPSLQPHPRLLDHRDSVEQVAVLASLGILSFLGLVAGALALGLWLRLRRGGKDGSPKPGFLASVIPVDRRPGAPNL

Binder | fold binding over control phage (fd-tet) [1] | fold binding over negative control phage (fd-tet) [2] | binding result [3]
B1 | 30 fold | 870 fold | –
B2 | 30 fold | 260 fold | –
B3 | – | – | binds
